In US20220363763A1:

Columns and labels:
[1] = target: human PD-L1-Fc protein (human) (UniProt Q9NZQ7); assay: ELISA on coated human PD-L1-Fc; EC50 table has no unit, x axis Ab(nM); fit value of a flat control curve
[2] = target: human PD-L1 expressed on mammalian cells (human) (UniProt Q9NZQ7); assay: cell-based binding on Raji-PDL1 cells (FACS by paragraph 328; the y axis of the sheet is labelled IL2 (ng/ml)); EC50 table has no unit, x axis Concentration (nM)
[3] = target: human LAG3 on cells (human) (UniProt P18627); assay: flow cytometry (MFI) on Jurkat-LAG3 cells, upper panel; EC50 table has no unit, x axis Concentration (nM); fit value of a flat control curve
Sequence of human LAG3 on cells (human) (P18627 23-525): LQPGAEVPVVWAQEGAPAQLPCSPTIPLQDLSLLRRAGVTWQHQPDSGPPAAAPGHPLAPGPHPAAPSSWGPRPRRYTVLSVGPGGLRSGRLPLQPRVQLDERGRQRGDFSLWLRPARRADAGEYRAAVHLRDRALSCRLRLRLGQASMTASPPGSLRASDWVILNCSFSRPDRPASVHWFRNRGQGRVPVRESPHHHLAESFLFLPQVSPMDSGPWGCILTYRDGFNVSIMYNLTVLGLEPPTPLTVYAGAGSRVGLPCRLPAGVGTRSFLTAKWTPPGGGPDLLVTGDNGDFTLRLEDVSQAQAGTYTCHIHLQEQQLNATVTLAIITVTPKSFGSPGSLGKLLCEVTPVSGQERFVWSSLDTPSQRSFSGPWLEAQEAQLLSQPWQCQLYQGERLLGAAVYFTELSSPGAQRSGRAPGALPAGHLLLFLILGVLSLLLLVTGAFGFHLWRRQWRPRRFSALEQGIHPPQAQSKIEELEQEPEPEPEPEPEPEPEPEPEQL

[4] = target: human LAG3 on cells (human) (UniProt P18627); assay: flow cytometry (MFI) on activated CD4 T cells, lower panel; EC50 table has no unit, x axis Concentration (nM); fit value of a flat control curve

Sequence of human PD-L1 expressed on mammalian cells (human) (Q9NZQ7 19-290): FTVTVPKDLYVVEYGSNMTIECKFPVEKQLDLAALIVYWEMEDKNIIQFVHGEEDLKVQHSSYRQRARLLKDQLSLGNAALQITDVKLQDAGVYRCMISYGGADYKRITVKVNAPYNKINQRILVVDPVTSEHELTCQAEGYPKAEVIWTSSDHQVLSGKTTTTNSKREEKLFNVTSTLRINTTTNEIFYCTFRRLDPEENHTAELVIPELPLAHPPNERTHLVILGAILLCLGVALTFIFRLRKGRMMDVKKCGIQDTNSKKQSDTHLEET
Sequence of human PD-L1-Fc protein (human) (Q9NZQ7 19-239 limits assumed): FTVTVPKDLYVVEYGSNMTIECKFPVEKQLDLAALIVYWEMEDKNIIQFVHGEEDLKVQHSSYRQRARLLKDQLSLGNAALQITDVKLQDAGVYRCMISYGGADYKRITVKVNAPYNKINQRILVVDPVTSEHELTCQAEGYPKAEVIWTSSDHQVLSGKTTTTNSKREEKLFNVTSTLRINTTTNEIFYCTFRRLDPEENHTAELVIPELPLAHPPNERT

Q: With hIgG (antibody) as the substance, how does the EC50 [1] read?
A: Its EC50 is 0.0848 µM.

Q: With Tecentriq (antibody) as the substance, how does the EC50 [2] read?
A: Its EC50 is 0.000891 µM.

Q: How did the EC50 [3] turn out when IgG (antibody) was run?
A: Its EC50 is 0.000463 µM.

Q: And the EC50 [4]?
A: Its EC50 is 3590 µM.
